Reference: patent US20260232759A1 (WISCONSIN ALUMNI RESEARCH FOUNDATION, published 2026)
No end group written: not given here. PEG‑cholesterol = not defined here

Molecular target: SARS-CoV-2 Spike protein (SARS-CoV-2, UniProt P0DTC2 14-1273)
Experiment: cell-based or functional assay

Binder | inhibition of S-mediated cell-cell fusion (β-Gal complementation), IC50 [nM]
DISQINASVVNIEYEIKKLEEVAKKLEESLIDLQELGSGSGC(PEG‑cholesterol) (not fully specified (C-terminus); reading uncertain; also: β2- or β3-amino acids, presumably D1, Q4, D32, Q34) [D1 Q4 D32 Q34] | ~10
DISQINASVVNIEYEIKKLEEVAKKLEESLIDLQELGSGSGC(PEG‑cholesterol) (not fully specified (C-terminus); reading uncertain; also: β2- or β3-amino acids, presumably D1, Q4, D32, E35) [D1 Q4 D32 E35] | ~50
